Assay results published in the supplement of paper PMC9732359.
± gives the uncertainty stated by the source.

Assay: protein stability index of a GFP-peptide fusion (yeast GPS) (PSI 1-4); higher = more stable; sorted into four equal gates, so the index is relative within each strain
How it was run: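 Peptides tiling yeast proteins in 17-residue segments were fused downstream of GFP, with Cherry expressed from the same plasmid. As a pooled library in yeast, mid-log cultures grown in leucine-free medium were sorted into four equal gates by GFP/Cherry fluorescence ratio. Gate plasmids were PCR-amplified and Illumina-sequenced, and barcodes linked reads to strains. Each peptide received a protein stability index equal to the sum of each gate's read frequency times its gate number.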

Sequence | protein stability index (doa10∆) | protein stability index (pdr5∆) | protein stability index (san1∆) | protein stability index (ubr1∆)
DTLCGIRKLTLRDTFIE [RPO21] | 2.91 ± 0.085 | 1.58 ± 0.058 | 1.26 ± 0.1 | 1.46 ± 0.056
SKKVLECLPAEGHDWKA [DIS3] | 1.65 ± 0.13 | 1.69 ± 0.13 | 1.47 ± 0.1 | 1.55 ± 0.07
QKLMQLVVLTDVVERLH [RGR1] | 2.29 ± 0.072 | 2.38 ± 0.049 | 2.23 ± 0.091 | 2.3 ± 0.035
KLYVSHIQVNQAPKQRR [RPL17A] | 1.89 ± 0.079 | 1.92 ± 0.068 | 2.02 ± 0.14 | 2.08 ± 0.11
FAESPFFDKTSNNQVIK [MED6] | 3.49 ± 0.081 | 2.92 ± 0.096 | 2.71 ± 0.076 | 2.96 ± 0.069
MKLTDLLSLINSTHLLP [SNF12] | 2.56 ± 0.052 | 2.57 ± 0.04 | 2.94 ± 0.05 | 2.58 ± 0.036
KRMLLSLSEFARRRQPT [SNF2] | 2.26 ± 0.15 | 2.63 ± 0.13 | 1.77 ± 0.25 | 2.58 ± 0.092
TRASKVLEQLSGQTPVQ [RPL11A] | – | 3.01 ± 0.12 | 2.84 ± 0.074 | 3.06 ± 0.077
ITGEKLDTQLNDLRVSL [SMC1] | 1.3 ± 0.068 | 2 ± 0.076 | 1.58 ± 0.18 | 1.16 ± 0.032
NFQDLSYLSETLISRIS [YML103C/NUP188] | 2.38 ± 0.082 | 2.51 ± 0.079 | 2.04 ± 0.093 | 2.32 ± 0.074
KRELKRAQEEVKRIQSV [RPT3] | 3.23 ± 0.096 | 3.39 ± 0.14 | 2.91 ± 0.096 | 3.38 ± 0.083
TKEQYAAESKKYRQTKL [RPL5] | 3.17 ± 0.14 | 3.28 ± 0.18 | 3.37 ± 0.094 | 3.12 ± 0.1
GSYLCTSSTPSPIKNGS [YOR098C/NUP1] | 2.95 ± 0.054 | 2.94 ± 0.054 | 2.78 ± 0.053 | 2.97 ± 0.04
VIANPKGEMKGSAITGP [RPL23A] | 3.19 ± 0.13 | 3.22 ± 0.2 | 2.64 ± 0.14 | 2.91 ± 0.23
DKLELYVLRNVLRIPEE [MTW1] | 3 ± 0.13 | 2.45 ± 0.084 | 2.94 ± 0.076 | 3.41 ± 0.12
TSSRQTVFLPMVGLVDP [RPT5] | 2.55 ± 0.038 | 2.62 ± 0.044 | 2.39 ± 0.044 | 2.16 ± 0.033
VLDIVPGSSITETEVER [SRB4] | 3.04 ± 0.13 | 2.88 ± 0.15 | 2.57 ± 0.18 | 2.83 ± 0.12
EILNIFKHISVKDFTSL [RPO21] | 2.41 ± 0.14 | 2.23 ± 0.12 | 2.14 ± 0.11 | 1.85 ± 0.046
SYKMIQLDAYGEKKVGS [SWP82] | 3.27 ± 0.093 | 3.37 ± 0.093 | 3.35 ± 0.075 | 3.02 ± 0.072
LKIFQEQSLEVFIFPTS [SRB8] | 2.12 ± 0.083 | 1.96 ± 0.054 | 2.29 ± 0.056 | 2.28 ± 0.041
TNQLKSLKGLQSKLKDV [RPN8] | – | 1.59 ± 0.23 | 2.62 ± 0.19 | 1.36 ± 0.13
NNSDDEDVDDEELDITP [IRR1] | 3.25 ± 0.099 | 3.46 ± 0.11 | 3.58 ± 0.083 | 3.31 ± 0.077
VDNTVPSTTLFNFGGKS [YOR098C/NUP1] | 1.75 ± 0.047 | 2.07 ± 0.049 | 2.28 ± 0.058 | 2.38 ± 0.033
NTTLQDNVSFIEEAKSI [REC8] | 3.1 ± 0.084 | 3.22 ± 0.091 | 3.23 ± 0.064 | 3.17 ± 0.066
TKYSDVLGFLQLFHNLI [YJL039C/NUP192] | 2.75 ± 0.063 | 2.65 ± 0.062 | 2.86 ± 0.048 | 2.94 ± 0.049
DFIKFDAGKLVYVTGGR [RPS4A] | 2.22 ± 0.13 | 2.1 ± 0.086 | 2.41 ± 0.1 | 2.36 ± 0.094

Sequence | protein stability index (doa10∆) | protein stability index (pdr5∆) | protein stability index (san1∆) | protein stability index (ubr1∆)
SLGHQTSLITAVYGPRS [MTR3] | 2.54 ± 0.052 | 2.24 ± 0.056 | 2.63 ± 0.061 | 1.81 ± 0.053
TKSETKQENETMQPPYI [MED11] | 2.95 ± 0.051 | 2.85 ± 0.059 | 2.7 ± 0.1 | 2.96 ± 0.042
LRDREDWGQALRLLLLL [YJR042W/NUP85] | 2.83 ± 0.066 | 2.13 ± 0.067 | 2.2 ± 0.083 | 1.66 ± 0.044
DQNNATMGEETAKKDMS [SNF12] | 3.44 ± 0.082 | 3.34 ± 0.11 | 3.21 ± 0.12 | 3.32 ± 0.09
KDLSNYRKTEGIFEKAK [YMR153W/NUP53] | 3.01 ± 0.11 | 2.75 ± 0.1 | 3.04 ± 0.1 | 2.74 ± 0.086
KLALAENDTNMNETLNL [SMC4] | 3.15 ± 0.13 | 3.15 ± 0.077 | 3.04 ± 0.1 | 2.85 ± 0.089
KERNQKFQLQNQLEDFI [YIL149C/MLP2] | 3.05 ± 0.075 | 3.25 ± 0.066 | 2.78 ± 0.05 | 3 ± 0.053
PSSSDSNGPRAAKKRRP [RRP6] | 3.08 ± 0.11 | 3.29 ± 0.085 | 3.28 ± 0.063 | 3.3 ± 0.062
RKIEFPSLRDRRERRLI [RPT3] | 3.31 ± 0.052 | 3.34 ± 0.086 | 2.68 ± 0.066 | 3.32 ± 0.042
TRFPPAVFYTPKELGGL [PRP8] | 3.19 ± 0.076 | 3.08 ± 0.07 | 3.25 ± 0.068 | 3.04 ± 0.063
SSDAFEKLKVNMEKEKD [YIL149C/MLP2] | 3.05 ± 0.071 | 3.19 ± 0.094 | 3.33 ± 0.057 | 3.23 ± 0.062
IFEAISLSDELNLDEIV [YJL039C/NUP192] | 2.76 ± 0.067 | 2.73 ± 0.064 | 2.72 ± 0.042 | 2.87 ± 0.054
NVLIGGYDKKKNKPELY [PRE1] | – | 2.53 ± 0.27 | – | 2.74 ± 0.27
LMRELLKMMKLIVDTHV [PRP8] | 1.9 ± 0.083 | 1.34 ± 0.06 | 2.29 ± 0.088 | 1.39 ± 0.06
QIANDPSKKRRRDFGAP [SMD1] | 2.81 ± 0.12 | 3.18 ± 0.1 | 2.86 ± 0.092 | 3.25 ± 0.073
SGKITDFIKFDAGKLVY [RPS4A] | 3.17 ± 0.066 | 2.92 ± 0.061 | 2.8 ± 0.06 | 3 ± 0.064
ENLVQGNGNVSESDIIN [YCG1] | 3.78 ± 0.29 | – | – | –
VGQLNKVVDQLFEKASV [RPN6] | 2.5 ± 0.063 | 2.51 ± 0.15 | 2.77 ± 0.076 | 2.5 ± 0.058
SADPSLLIDQFSPVISQ [SWI1] | 2.85 ± 0.12 | 3.08 ± 0.1 | 2.51 ± 0.18 | 2.96 ± 0.067
NLTEFVQMDKIRKIVRK [AAR2] | 2.77 ± 0.14 | 2.43 ± 0.1 | 1.9 ± 0.13 | 2.34 ± 0.13
CRKLSFSDKVNALWILV [ITC1] | 1.72 ± 0.075 | 1.8 ± 0.044 | 1.5 ± 0.1 | 1.85 ± 0.051
KSGKTIVITSITGGIIE [RRP43] | 1.6 ± 0.072 | 1.84 ± 0.077 | 2.07 ± 0.1 | 1.78 ± 0.1
DSLENNEGVPSPMLSIS [FAS1] | 3.08 ± 0.077 | 2.56 ± 0.062 | 2.4 ± 0.1 | 3.29 ± 0.094
WSCIVVENWIIDDKGVL [ITC1] | 2.18 ± 0.058 | 2.72 ± 0.08 | 2.71 ± 0.12 | 2.95 ± 0.063
QKSINHPPDFKRMLLSL [SNF2] | 1.66 ± 0.04 | 1.42 ± 0.039 | 1.71 ± 0.062 | 1.38 ± 0.022
TPTHSDSHEDMKRRRLE [ROX3] | 2.89 ± 0.15 | 3.33 ± 0.15 | 3.14 ± 0.18 | 3.14 ± 0.091
